We go through 94 variants from the supplement of paper PMC10567573.

B1: SPSB1 (parent)
chain: DMRDPTYRPLKQELQGLDYCKPTR
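Further: lentivirally expressed fusions sorted by FACS into six bins by GFP to DsRed ratio, PSI derived from sequencing read proportions per bin multiplied by bin number.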

This data set covers variants of B1. In words: protein stability index of a GFP-peptide fusion (GPS, HEK-293T) (PSI 1-6); higher = more stable. Conditions: c terminus: a fixed tail appended.
As to DMRDPTYRPLKQELHGLDYCKPTR [Q15H], the protein stability index worked out at 2.7.
Consider DMRDPTYRPLKQELGGLDYCKPTR [Q15G], for which the protein stability index was determined as 2.25.
The same measure for DMRDPTYRPLKQELLGLDYCKPTR [Q15L]: 2.81; for DMRDPTYRPLKQELMGLDYCKPTR [Q15M]: 3.33.
As for DMRDPTYRPLKQELQGTDYCKPTR [L17T], the protein stability index turned out to be 4.29.
Take DMRDPTYRPLKQELQGADYCKPTR [L17A]: the protein stability index was found to be 3.82.
Under DMRDPTYRPLKQELQGEDYCKPTR [L17E] stands 4.37; under DMRDPTYRPLKQELQGKDYCKPTR [L17K], 3.96; under DMRDPTYRPLKQELQGGDYCKPTR [L17G], 3.51.
The same measure for DMRDPTYRPLKQELQGHDYCKPTR [L17H]: 4.39; for DMRDPTYRPLKQELQGIDYCKPTR [L17I]: 4.02.
With DMRDPTYRPLKQELQGMDYCKPTR [L17M], the protein stability index came to 4.12.
As for DMRDPTYRPLKQELQGLDECKPTR [Y19E], the protein stability index was 5.15.
Regarding DMRDPTYRPLKQELQGLDWCKPTR [Y19W], the protein stability index amounted to 3.04.
On to DMRDPTYRPLKQELQGLDACKPTR [Y19A], for which the protein stability index amounted to 4.53.
Turning to DMRDPTYRPLKQELQGLDTCKPTR [Y19T], the protein stability index stood at 4.32.
DMRDPTYRPLKQELQGLDSCKPTR [Y19S]: the protein stability index amounted to 4.35.
The same measure for DMRDPTYRPLKAELQGLDYCKPTR [Q12A]: 3.12; for DMRDPTYRPLKNELQGLDYCKPTR [Q12N]: 3.17.
On to DMRDPTYRPLKRELQGLDYCKPTR [Q12R], for which the protein stability index amounted to 3.18.
Under DMRDPTYRPLKKELQGLDYCKPTR [Q12K] stands 2.94; under DMRDPTYRPLKVELQGLDYCKPTR [Q12V], 2.59.
The same measure for DMRDPTYRPLKSELQGLDYCKPTR [Q12S]: 3.25; for DMRDPTYRPLKGELQGLDYCKPTR [Q12G]: 2.48; for DMRDPTYRPLKFELQGLDYCKPTR [Q12F]: 2.67.
With DMRDPTYRPLKQELQGLDYCSPTR [K21S], the protein stability index came to 2.92.
The same measure for DMRDPTYRPLKQELQGLDYCCPTR [K21C]: 2.44; for DMRDPTYRPLKQELQGLDYCHPTR [K21H]: 2.46.
For DMRDPTYRPLKQELQGLDYCVPTR [K21V], the protein stability index worked out at 3.65.
DMRDPTYRPLKQELQGLDYCPPTR [K21P]: the protein stability index was determined as 3.95.
For the variant DMRDPTYRPLKQELQGLDYCQPTR [K21Q], the protein stability index was determined as 2.64.
For the variant DMRDPTYRPLKQELQGLDYCMPTR [K21M], the protein stability index is 2.39.
As for DMRDPTYRPLKQELQGLDYCNPTR [K21N], the protein stability index worked out at 1.78.
Consider DMRDPTYRPLKQELQGLDYCEPTR [K21E], for which the protein stability index worked out at 2.76.
Under DMRDPTYRPLKQELQGLDYCIPTR [K21I] stands 1.87; under DMRDPTYRPLKQELQGLDYCRPTR [K21R], 3.5; under DMRDPTYRPLKQELQGLDYCFPTR [K21F], 1.6.
Consider DMRDPTYEPLKQELQGLDYCKPTR [R8E], for which the protein stability index turned out to be 3.55.
For the variant DMRDPTYKPLKQELQGLDYCKPTR [R8K], the protein stability index worked out at 3.1.
For DMRDPTYGPLKQELQGLDYCKPTR [R8G], the protein stability index is 3.43.
As to DMRDPTYSPLKQELQGLDYCKPTR [R8S], the protein stability index stood at 2.68.
As for DMRDPTYIPLKQELQGLDYCKPTR [R8I], the protein stability index was found to be 3.31.
The same measure for DMRDPTYQPLKQELQGLDYCKPTR [R8Q]: 3.83; for DMRDPTYRPLKQELQGLDYCKPTG [R24G]: 3.85.
For DMRDPTYRPLKQELQGLDYCKPTD [R24D], the protein stability index is 4.59.
Regarding DMRDPTYRPLKQELQGLDYCKPTS [R24S], the protein stability index is 3.68.
In the case of DMRDPTYRPLKQELQGLDYCKPTY [R24Y], the protein stability index was 2.21.
For the variant DMRDPTYRPLKQELQGLDYCKPTK [R24K], the protein stability index came to 3.09.
Take DMRDPTYRPLKQELQGLDYCKPTW [R24W]: the protein stability index worked out at 1.93.
Consider DMRDPTYRPLKQQLQGLDYCKPTR [E13Q], for which the protein stability index came to 2.98.
With DMRDPTYRPLKQLLQGLDYCKPTR [E13L], the protein stability index stood at 2.42.
DMRDPTYRPLKQMLQGLDYCKPTR [E13M]: the protein stability index was found to be 2.48.
As to DMRDPTYRPLKQTLQGLDYCKPTR [E13T], the protein stability index came to 3.18.
As for DMRDPTYRPLKQCLQGLDYCKPTR [E13C], the protein stability index was found to be 2.91.
On to DMRDPTYRPLKQGLQGLDYCKPTR [E13G], for which the protein stability index worked out at 3.59.
The same measure for DMRDPTYRPLKQELQGLDYTKPTR [C20T]: 3.71.
For DMRDPTYRPLKQELQGLDYEKPTR [C20E], the protein stability index turned out to be 4.41.
For the variant DMRDPTYRPLKQELQGLDYLKPTR [C20L], the protein stability index was determined as 2.98.
Turning to DMRDPTYRPLKQELQGLDYYKPTR [C20Y], the protein stability index was found to be 3.58.
With DMRDPTYRPLKQELQGLDYHKPTR [C20H], the protein stability index turned out to be 2.93.
DMRDPTYRPLKQELQGLDYGKPTR [C20G]: the protein stability index is 4.3.
Under DMRDPTYRPLKQELQGLDYIKPTR [C20I] stands 2.77; under DMRDPTYRPLKQELQGLDYWKPTR [C20W], 2.15; under TMRDPTYRPLKQELQGLDYCKPTR [D1T], 3.62.
For NMRDPTYRPLKQELQGLDYCKPTR [D1N], the protein stability index came to 3.12.
For the variant IMRDPTYRPLKQELQGLDYCKPTR [D1I], the protein stability index came to 2.57.
The same measure for WMRDPTYRPLKQELQGLDYCKPTR [D1W]: 1.78.
For PMRDPTYRPLKQELQGLDYCKPTR [D1P], the protein stability index stood at 3.82.
The same measure for FMRDPTYRPLKQELQGLDYCKPTR [D1F]: 3.
Under CMRDPTYRPLKQELQGLDYCKPTR [D1C] stands 3.94.
SMRDPTYRPLKQELQGLDYCKPTR [D1S]: the protein stability index is 3.02.
The same measure for EMRDPTYRPLKQELQGLDYCKPTR [D1E]: 3.53; for AMRDPTYRPLKQELQGLDYCKPTR [D1A]: 2.45; for DMRDLTYRPLKQELQGLDYCKPTR [P5L]: 3.53.
With DMRDMTYRPLKQELQGLDYCKPTR [P5M], the protein stability index stood at 3.57.
The same measure for DMRDITYRPLKQELQGLDYCKPTR [P5I]: 2.63.
DMRDETYRPLKQELQGLDYCKPTR [P5E]: the protein stability index was 3.65.
As to DMRDDTYRPLKQELQGLDYCKPTR [P5D], the protein stability index came to 3.1.
The same measure for DMRDGTYRPLKQELQGLDYCKPTR [P5G]: 3.19.
As for DMRDPWYRPLKQELQGLDYCKPTR [T6W], the protein stability index was found to be 4.09.
Under DMRDPEYRPLKQELQGLDYCKPTR [T6E] stands 3.51.
Regarding DMRDPDYRPLKQELQGLDYCKPTR [T6D], the protein stability index was 2.72.
As for DMRDPRYRPLKQELQGLDYCKPTR [T6R], the protein stability index was 3.62.
For the variant DMRDPAYRPLKQELQGLDYCKPTR [T6A], the protein stability index was found to be 3.33.
For the variant DMRDPKYRPLKQELQGLDYCKPTR [T6K], the protein stability index amounted to 3.47.
DMRDPGYRPLKQELQGLDYCKPTR [T6G]: the protein stability index came out at 3.93.
On to DMRDPNYRPLKQELQGLDYCKPTR [T6N], for which the protein stability index was determined as 3.13.
Regarding DMRDPPYRPLKQELQGLDYCKPTR [T6P], the protein stability index came to 3.57.
With DMRDPTYRPLKQELQGLNYCKPTR [D18N], the protein stability index worked out at 2.28.
DMRDPTYRPLKQELQGLLYCKPTR [D18L]: the protein stability index came to 2.95.
With DMRDPTYRPLKQELQGLIYCKPTR [D18I], the protein stability index worked out at 2.89.
For the variant DMRDPTYRPLKQELQGLCYCKPTR [D18C], the protein stability index is 3.08.
With DMRDPTYRPLKQELQGLQYCKPTR [D18Q], the protein stability index was 3.83.
Turning to DMRDPTYRPLKQELQGLAYCKPTR [D18A], the protein stability index was 3.81.
